Test results: article PMC4164784, “4E-BPs require non-canonical 4E-binding motifs and a lateral surface of eIF4E to repress translation” (Nature Communications, 2014)
Positions count from the first letter of the chain named. No end group written: not given here.

Experiments:
[1] = tested on: eIF4E (residues 69–248); test: MBP pull-down of purified eIF4E (69–248); type: binding, Drosophila melanogaster; conditions: MBP- and GB1-tagged fragments, 1 h at 4 °C, SDS–PAGE Coomassie, no eIF4G present
Description: In Fig. 2c, eIF4G (residues 578–650) and the C+NC peptides of CUP, Thor and 4E-T were expressed with a N-terminal MBP and a C-terminal GB1 tag. The bacterial cells were resuspended in 5 ml of lysis buffer containing 50 mM HEPES (pH 7.2), 200 mM NaCl and 2 mM DTT and lysed by sonication. Purified eIF4E (residues 69–248) was added to the cleared lysates (40–80 μl), adjusted to 0.3 ml with lysis buffer and incubated with 30 μL of amylose resin for 1 h at 4 °C. The beads were washed three times with lysis buffer and eluted with 64 μl of the same buffer containing 25 mM maltose. The proteins were analyzed by 15% SDS–PAGE followed by Coomassie blue staining.

[2] = molecular target: T1, eIF4E–eIF4G complex (eIF4E WT; eIF4G residues 578–650) (Drosophila melanogaster, UniProt P48598); test: Competition assay, displacement of GST-eIF4G from preassembled eIF4E (WT)–eIF4G complexes; type: biochemical; conditions: Fig. 5a,c; fivefold molar excess of MBP-tagged competitor, 30 min at 4 °C, m7GTP or Strep-Tactin pull down
T1 construct: full-length eIF4E (WT or the II-AA mutant) containing an N-terminal SNH-tag was coexpressed; made in house; host or cells: E. coli BL21 Star (DE3), coexpression
T1 sequence (P48598 1-248 isoform P48598-2): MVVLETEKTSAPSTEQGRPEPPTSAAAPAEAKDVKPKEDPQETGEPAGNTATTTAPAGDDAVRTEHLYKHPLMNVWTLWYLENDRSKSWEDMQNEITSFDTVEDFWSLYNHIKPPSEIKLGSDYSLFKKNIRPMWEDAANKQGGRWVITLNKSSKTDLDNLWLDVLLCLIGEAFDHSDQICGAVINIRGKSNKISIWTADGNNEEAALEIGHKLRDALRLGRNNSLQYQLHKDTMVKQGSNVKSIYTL
Description: For the competition assays shown in Figs 5a,c and 6a,b, complexes containing SHN- or MBP-tagged eIF4E (WT or II-AA mutant) bound to GST-eIF4G (residues 578–650), GST-Thor (full length), GST-4E-T (residues 1–58) or GST-CUP (311–440) were obtained by coexpressing the corresponding proteins in E. coli BL21 (DE3) STAR cells (30 ml culture). The cells were resuspended in lysis buffer (5 ml) that was supplemented with EDTA-free protease inhibitor (Roche) and 1 mg ml^−1 lysozyme and lysed by sonication. The cleared lysates were incubated with 400 μl of Protino Glutathione Agarose 4B (Macherey-Nagel) for 1 h. The beads were washed three times with lysis buffer, and the proteins were eluted after 10 min of incubation with lysis buffer containing 25 mM L-glutathione. The protein complexes were stored at −20 °C or used in competition assays.
The purified recombinant complexes were mixed with excess amounts of the indicated purified competitor proteins (Fig. 5c) or with bacterial lysates expressing the competitor proteins (Figs 5a and 6) and incubated for 30 min at 4 °C. After incubation, 20 μl of immobilized γ-Aminophenyl-m^7GTP or Strep-Tactin Sepharose (IBA), were added to the samples and incubated for another 40 min at 4 °C. The beads were washed three times with lysis buffer and eluted with lysis buffer containing 2.5 mM desthiobiotin (Strep-Tactin Sepharose) or with 20 μl of SDS–PAGE loading buffer (Aminophenyl-m^7GTP beads). The proteins were analyzed by 10–15% SDS–PAGE followed by staining with Coomassie blue staining. […]

[3] = molecular target: T2, SHN-eIF4E (full length, WT) (Drosophila melanogaster, UniProt P48598-2 1-248); test: pull-down; competition: purified SHN-eIF4E–GST-eIF4G complex with fivefold molar excess of purified MBP-Thor, 30 min at 4 °C; Strep-Tactin beads; conditions: both partners purified
T2 construct: eIF4E, Drosophila melanogaster; also called SHN-tagged eIF4E; SNH-tagged eIF4E; not shown: Strep-NusA-His (SHN), N-terminal, kept
T2 sequence (looked up): T1 sequence (P48598 1-248 isoform P48598-2)

[4] = molecular target: T2, SHN-eIF4E (full length, WT); test: pull-down; preassembled complexes of SHN-eIF4E (WT or II-AA) with GST-eIF4G, GST-CUP, GST-Thor or GST-4E-T (coexpressed, purified on glutathione agarose) recovered on Strep-Tactin beads; conditions: both partners purified
[5] = molecular target: T3, SHN-eIF4E (full length, II-AA mutant) (Drosophila melanogaster, UniProt P48598-2 1-248, Ile96 to Ala (II-AA) | Ile112 to Ala (II-AA)); test: as above; conditions: both partners purified
T3 construct: eIF4E, Drosophila melanogaster; also called SHN-tagged eIF4E II-AA; not shown: Strep-NusA-His (SHN), N-terminal, kept
T3 sequence (looked up): T1 sequence (P48598 1-248 isoform P48598-2) with I96A, I112A

[6] = tested on: endogenous eIF4E; test: Coimmunoprecipitation / m7GTP pull-down with endogenous eIF4E in S2 cell lysates; type: cell-based, Drosophila melanogaster; conditions: western blot
How it was run: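 S2 cell lysates expressing HA-tagged 4E-BPs (CUP, Thor, 4E-T), eIF4G or mutants, immunoprecipitated with anti-eIF4E or anti-HA antibodies, or pulled down with m7GTP beads for 1 h at 4 °C. Washes in NET buffer (50 mM Tris pH 7.4, 150 mM NaCl, 1 mM EDTA, 0.1% Triton X-100). Bound proteins detected by anti-HA/anti-eIF4E western blot; pre-immune serum and HA-MBP as negative controls.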

[7] = tested on: eIF4E W106A (dorsal surface mutant); conditions: known effect of W106A substitution; cited from earlier work
[8] = tested on: eIF4E II-AA (lateral surface mutant); test: Coimmunoprecipitation with HA-eIF4E II-AA in S2 cells; type: cell-based, Drosophila melanogaster; conditions: HA-eIF4E II-AA vs WT, western blot
Description: The coimmunoprecipitations assays were performed as previously described. For the pull downs using m^7GTP beads, 25 μl of immobilized γ-aminophenyl-m^7GTP (C10-spacer—Jena Bioscience) beads was added to the cell lysates and the mixtures were rotated for 1 h at 4 °C. The beads were washed three times with NET buffer (50 mM Tris (pH 7.4), 150 mM NaCl, 1 mM EDTA and 0.1% Triton X-100). The bound proteins were eluted with 2 × SDS–polyacrylamide gel electrophoresis (SDS–PAGE) sample buffer and analyzed by western blotting (WB). All of the WB experiments were developed with the ECL western blotting detection system (GE Healthcare) as recommended by the manufacturer. The antibodies used in this study are listed in Supplementary Table 2.

[9] = tested on: eIF4E II-AA mutant (full length); test: GST/MBP pull-down of full-length eIF4E II-AA mutant, coexpressed in E. coli; type: binding, Drosophila melanogaster; conditions: recombinant CUP (311–440), Thor (full length), 4E-T (1–58) or eIF4G (578–650), WT or mutant, SDS–PAGE
Description: For the pull-down assays shown in Fig. 3 and Supplementary Fig. 6a, the full-length His6- or SHN-tagged eIF4E (WT or II-AA mutant) was coexpressed with GST or MBP-tagged protein fragments, including CUP (residues 311–440), Thor (full length), 4E-T (residues 1–58) or eIF4G (residues 578–650) in E. coli BL21 (DE3) STAR cells in autoinducing medium[44] overnight at 20 °C. The cells were resuspended in lysis buffer (20 mM Tris–HCl (pH 7.5), 100 mM NaCl, 1 mM DTT) supplemented with EDTA-free protease inhibitor (Roche) and lysed by sonication. The cleared lysates were incubated for 1 h with 20 μl of Protino Glutathione Agarose 4B beads (Macherey-Nagel) or amylose resin (New England Biolabs). The beads were washed three times with lysis buffer, and the bound proteins were eluted with lysis buffer containing 25 mM L-glutathione or 25 mM maltose for 15 min. The proteins were analyzed by 10–15% SDS–PAGE followed by Coomassie blue staining.

[10] = tested on: endogenous eIF4E and HA-tagged 4E-BPs in S2 cells; test: Immunofluorescence localization in S2 cells; type: cell-based, Drosophila melanogaster

For “CUP NC: CUP residues 362–376, non-canonical motif, MBP/GB1 fusion (IELEGRLRRMNIWRT; also: MBP/GB1 fusion; UniProt Q9VMA3 362-376, looked up, fragment)”, the “pull down of purified eIF4E (in words)” value [1] was “bind to eIF4E in the absence of eIF4G” and the “competition with eIF4G for eIF4E WT (in words)” value [2] was “did not compete with eIF4G”.

B1: MBP-Thor (full length, WT) (natural protein, Drosophila melanogaster, UniProt Q9XZ56 1-117, looked up)
chain: MSASPTARQAITQALPMITRKVVISDPIQMPEVYSSTPGGTLYSTTPGGTKLIYERAFMKNLRGSPLSQTPPSNVPSCLLRGTPRTPFRKCVPVPTELIKQTKSLKIEDQEQFQLDL
notes: Thor, Drosophila melanogaster; not shown: MBP, N-terminal, kept
B1: binds [3].

B2: GST-CUP (residues 311–440) (domain or fragment, Drosophila melanogaster, UniProt Q9VMA3 311-440, looked up)
chain: VRPTTAPVVSSKPVKSYTRSRLMDIRNGMFNALMHRSKESFVMPRIATCDDIELEGRLRRMNIWRTSDGTRFRTRSTTANLNMNNNNNNECMPAFFKNKNKPNLISDESIIQSQPPQPQTEFQDPAIVNQ
notes: CUP, Drosophila melanogaster, residues 311–440; may be the same construct as m25; source: E. coli BL21 (DE3) STAR, coexpressed with SHN-eIF4E, complex purified on glutathione agarose
B2: binds [4]; binds [5].

B3: CUP: Dm CUP (1–1117), Q9VMA3; residues 311–440 in pull-down assays (protein)
chain: MQMAEAEQENGAGALKIATNAGATDRPAHQQLPLPVEDQQDEVLTPAEKGKFEYPPPPPPPTPVQAPLATKATALNASQEHDDDEANSEKWEDPCAPPPPPPLPTSAFLATGLGYLKLPAFKLKDALEKAITKLEANKRTLKASPESSRSIKNKNVVALEMLPRRSNPETIGDGSMLASTSTAVMLQTKKPAVIVEMERRCKIINLLAKQNQILESISGEAIPMHGPSKHLHEDEGLTLQVLSARASTPYTQPSSMLSCTAVSCDLEHDSPRKQVASKEAVPEQQSSQVQQKRPPSTGIHKPGSLRAPKAVRPTTAPVVSSKPVKSYTRSRLMDIRNGMFNALMHRSKESFVMPRIATCDDIELEGRLRRMNIWRTSDGTRFRTRSTTANLNMNNNNNNECMPAFFKNKNKPNLISDESIIQSQPPQPQTEFQDPAIVNQRRIGSGRLNHSKWGYNDEDYHSYHNGKSQHMEEVNSKNSKNMTVLQFFDNGEISSQPQRRPNTPVMGMSINRSENDTLHSNESSEDLSRANENYVKRVMSGFLVVSKPKSRDVEDRHHRRYRNQNEEPEWFSCGPTSRLDTIELCGFDEDEEKMLKEGNKNHGLGETERETSKQKMDHKYKWTHAEPMGRSKYMPKHDTNNNHNVENMNNVMATEHQQQKEEKRPGSGRSFQFDKFNQSQQNYESSSYVNHQQPPQTQPQQMQQQSNTNTNNSKFMSFFANEGNSSSSSLNEFFKQAINQGHGNNPEQPKSLGHIGQMPSVDQLEAKWRRNSLNNVGETANKQTDNFQKLIGSLSSAKPQSQAVGYDAISNFIMQQQQYQQQQQKQHLIIQQQQQHTAFLASLQLKAILGRADTQLLLLRLTKGEISKHGLLVQLANPRLTDMDREAITAVLQFTNTQQQQQQHKQQLDMLSSTVIASQLQNLHNLAIVQQTLAARQQPQHNPQTQAPHQLSQEDLQAHANVIMRNAVMKRKIEEQTSKLINGGAKHQAQQQYLNRGQQRQARPDANSNALLHALISGGGNNHASGYPMNGQPQKHHSNLRFGDNQNFQSFESNQPHFATQYKQQYQQSQQQHPHQQPQQLNSLHQNNAGAVNSFNKAQMQAQSAISMLPNSGDEFH
modifications: left off: GFP, end not stated, kept
notes: Dm CUP (1–1117), Q9VMA3; residues 311–440 in pull-down assays
In the case of B3, the “interaction with endogenous eIF4E (in words)” value [6] is given as “interacted with endogenous eIF4E”, the “binding to eIF4E W106A (in words)” value [7] is given as “abolishes the binding” and the “association with eIF4E II-AA (in words)” value [8] is given as “disrupted the association”. For the same molecule, the “binding to eIF4E II-AA mutant (in words)” value [9] was “pulled down comparable amounts of WT and mutant eIF4E”, the “nuclear accumulation of endogenous eIF4E upon LMB (in words)” value ([10]; S2 cells expressing 4E-BP or mutant, LMB 100 nM, 12 h) was “endogenous eIF4E accumulated in the nucleus” and the “localization of endogenous eIF4E (in words)” value ([10]; S2 cells overexpressing 4E-BP or mutant, −LMB) was “evenly distributed in the cytoplasm”. The “nuclear accumulation of 4E-BP upon LMB (in words)” value ([10]; S2 cells, LMB 100 nM, 12 h) was “nuclear accumulation” and the “localization of the 4E-BP (in words)” value ([10]; S2 cells, steady-state, −LMB) was “distributed evenly throughout the cytoplasm”.
